Where two headings read alike, the source gives them in different places. Bridges are numbered along the chain shown (N, C = ends). Where no end group is shown, it is not given here. code n = not defined here
Columns and labels:
human albumin [1] = target: T1, human albumin (human, UniProt P02768 25-609); test: phage ELISA
Procedure: (§1) Phage ELISA—Phage clones (˜10¹¹ phage) were added to plates coated with rat, rabbit or human albumin. The microtiter plate was washed with wash buffer and bound phage were detected with HRP/Anti-M13 Conjugate. The amount of HRP bound was measured using ABTS/H₂O₂ substrate and monitoring the change at 405 nm.
(§2) This was tested using a phage ELISA.

rabbit albumin [2] = target: T2, rabbit albumin (rabbit, UniProt P49065 25-608); test: phage ELISA
Procedure: as §1, §2

rat albumin [3] = target: T3, rat albumin (rat, UniProt P02770 25-608); test: phage ELISA
Procedure: as §1, §2

bovine albumin = bovine albumin (bovine, UniProt P02769 25-607); test: phage ELISA, photograph of the plate
ovalbumin = target: T4, ovalbumin (UniProt P01012 2-386); test: phage ELISA, photograph of the plate
T4 sequence (looked up): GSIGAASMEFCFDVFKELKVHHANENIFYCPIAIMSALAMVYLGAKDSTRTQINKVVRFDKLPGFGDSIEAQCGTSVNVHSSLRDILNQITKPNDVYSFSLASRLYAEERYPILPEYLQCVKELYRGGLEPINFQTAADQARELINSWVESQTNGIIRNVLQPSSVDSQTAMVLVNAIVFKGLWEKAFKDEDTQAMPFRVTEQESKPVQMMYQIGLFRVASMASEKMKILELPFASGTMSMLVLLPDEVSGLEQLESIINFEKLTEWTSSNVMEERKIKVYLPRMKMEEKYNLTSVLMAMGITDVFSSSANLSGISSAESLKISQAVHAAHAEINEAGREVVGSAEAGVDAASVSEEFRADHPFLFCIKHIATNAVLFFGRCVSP

human albumin [4] = target: T1, human albumin; test: phage ELISA; remark: listed apart in the source
Procedure: as §1

mouse albumin [5] = target: T5, mouse albumin (mouse, UniProt P07724 25-608); test: SA08b binding assay: competition with biotinylated SA08b for immobilized albumin
Procedure: (§3) Plates were blocked using Blocker Casein (Pierce Chemical, Rockford, Ill.) for 1 hr, at 25° C. […] The amount of HRP bound was measured using ABTS/H₂O₂ substrate and monitoring the change at 405 nm.

rabbit albumin [6] = target: T2, rabbit albumin; test: as above
Procedure: as §3

rat albumin [7] = target: T3, rat albumin; test: as above
Procedure: as §3

rabbit albumin [8] = target: T2, rabbit albumin; test: phage ELISA; remark: listed apart in the source
Procedure: as §1

rat albumin [9] = target: T3, rat albumin; test: phage ELISA; remark: listed apart in the source
Procedure: as §1

rhesus albumin = rhesus albumin (rhesus, UniProt Q28522 17-600); test: phage ELISA, photograph of the plate
mouse albumin [10] = target: T5, mouse albumin; test: phage ELISA, photograph of the plate
rat albumin [11] = target: T3, rat albumin; test: phage ELISA, photograph of the plate
human albumin [12] = target: T1, human albumin; test: phage ELISA, photograph of the plate

Chain of rhesus albumin (Q28522 17-600 limits assumed): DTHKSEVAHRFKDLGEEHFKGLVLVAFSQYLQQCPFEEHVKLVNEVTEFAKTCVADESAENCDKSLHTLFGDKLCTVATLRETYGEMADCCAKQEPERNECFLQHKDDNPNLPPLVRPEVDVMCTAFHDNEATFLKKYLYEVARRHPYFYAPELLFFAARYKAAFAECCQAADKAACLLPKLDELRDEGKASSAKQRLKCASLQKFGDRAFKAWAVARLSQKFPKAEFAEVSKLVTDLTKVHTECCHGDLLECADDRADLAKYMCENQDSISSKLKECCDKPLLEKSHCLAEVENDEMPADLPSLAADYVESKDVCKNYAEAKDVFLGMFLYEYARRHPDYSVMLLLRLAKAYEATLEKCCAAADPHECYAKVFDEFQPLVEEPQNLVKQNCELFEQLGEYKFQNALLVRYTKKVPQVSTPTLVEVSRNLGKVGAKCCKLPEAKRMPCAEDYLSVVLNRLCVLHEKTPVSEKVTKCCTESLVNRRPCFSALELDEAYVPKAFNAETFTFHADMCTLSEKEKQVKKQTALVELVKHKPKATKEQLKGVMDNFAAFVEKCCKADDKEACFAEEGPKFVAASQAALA
T5 sequence (P07724 25-608 limits assumed): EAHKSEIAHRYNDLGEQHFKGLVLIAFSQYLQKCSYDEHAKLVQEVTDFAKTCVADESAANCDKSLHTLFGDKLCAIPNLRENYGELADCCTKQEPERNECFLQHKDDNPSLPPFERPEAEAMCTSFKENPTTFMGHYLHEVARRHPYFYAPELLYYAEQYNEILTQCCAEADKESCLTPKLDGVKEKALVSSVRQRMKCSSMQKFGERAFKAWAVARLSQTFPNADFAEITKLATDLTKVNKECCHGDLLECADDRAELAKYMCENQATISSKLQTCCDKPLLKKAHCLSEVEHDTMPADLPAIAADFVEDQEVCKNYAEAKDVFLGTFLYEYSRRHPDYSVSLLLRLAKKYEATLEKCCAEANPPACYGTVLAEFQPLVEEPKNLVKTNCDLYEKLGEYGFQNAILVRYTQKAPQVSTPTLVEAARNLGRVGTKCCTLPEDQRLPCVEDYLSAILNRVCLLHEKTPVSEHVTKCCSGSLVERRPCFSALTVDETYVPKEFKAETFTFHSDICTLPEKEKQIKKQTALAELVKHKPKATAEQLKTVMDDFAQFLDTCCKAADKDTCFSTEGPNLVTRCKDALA
T2 sequence (P49065 25-608 limits assumed): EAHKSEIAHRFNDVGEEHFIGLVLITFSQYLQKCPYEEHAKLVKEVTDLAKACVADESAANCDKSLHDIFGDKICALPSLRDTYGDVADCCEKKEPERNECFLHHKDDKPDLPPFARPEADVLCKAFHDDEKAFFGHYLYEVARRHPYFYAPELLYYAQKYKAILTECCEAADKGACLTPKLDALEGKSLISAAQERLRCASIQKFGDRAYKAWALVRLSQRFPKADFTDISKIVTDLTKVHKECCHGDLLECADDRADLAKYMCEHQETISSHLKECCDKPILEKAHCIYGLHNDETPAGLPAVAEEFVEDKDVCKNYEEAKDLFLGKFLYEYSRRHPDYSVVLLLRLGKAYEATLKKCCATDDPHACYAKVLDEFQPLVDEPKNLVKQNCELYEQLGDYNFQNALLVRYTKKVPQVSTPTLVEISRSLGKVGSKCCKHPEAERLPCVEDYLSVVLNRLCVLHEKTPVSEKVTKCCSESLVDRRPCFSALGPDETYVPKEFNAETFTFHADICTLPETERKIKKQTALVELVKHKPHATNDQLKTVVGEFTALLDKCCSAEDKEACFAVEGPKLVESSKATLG
T3 sequence (P02770 25-608 limits assumed): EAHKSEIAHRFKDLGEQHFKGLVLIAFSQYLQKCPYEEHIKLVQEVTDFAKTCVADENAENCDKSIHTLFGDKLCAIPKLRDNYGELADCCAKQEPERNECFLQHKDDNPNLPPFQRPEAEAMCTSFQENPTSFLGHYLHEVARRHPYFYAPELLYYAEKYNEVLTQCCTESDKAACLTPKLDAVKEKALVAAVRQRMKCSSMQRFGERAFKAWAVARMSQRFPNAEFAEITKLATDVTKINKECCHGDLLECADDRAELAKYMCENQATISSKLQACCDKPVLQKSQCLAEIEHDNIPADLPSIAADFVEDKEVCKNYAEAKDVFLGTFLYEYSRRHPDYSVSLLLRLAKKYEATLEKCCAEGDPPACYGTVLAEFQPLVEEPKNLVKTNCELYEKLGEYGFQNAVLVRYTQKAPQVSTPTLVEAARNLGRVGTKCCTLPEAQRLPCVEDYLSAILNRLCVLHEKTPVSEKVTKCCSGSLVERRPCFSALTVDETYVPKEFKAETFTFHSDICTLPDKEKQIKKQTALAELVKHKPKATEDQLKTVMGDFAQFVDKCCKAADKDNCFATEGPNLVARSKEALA
Chain of bovine albumin (P02769 25-607 limits assumed): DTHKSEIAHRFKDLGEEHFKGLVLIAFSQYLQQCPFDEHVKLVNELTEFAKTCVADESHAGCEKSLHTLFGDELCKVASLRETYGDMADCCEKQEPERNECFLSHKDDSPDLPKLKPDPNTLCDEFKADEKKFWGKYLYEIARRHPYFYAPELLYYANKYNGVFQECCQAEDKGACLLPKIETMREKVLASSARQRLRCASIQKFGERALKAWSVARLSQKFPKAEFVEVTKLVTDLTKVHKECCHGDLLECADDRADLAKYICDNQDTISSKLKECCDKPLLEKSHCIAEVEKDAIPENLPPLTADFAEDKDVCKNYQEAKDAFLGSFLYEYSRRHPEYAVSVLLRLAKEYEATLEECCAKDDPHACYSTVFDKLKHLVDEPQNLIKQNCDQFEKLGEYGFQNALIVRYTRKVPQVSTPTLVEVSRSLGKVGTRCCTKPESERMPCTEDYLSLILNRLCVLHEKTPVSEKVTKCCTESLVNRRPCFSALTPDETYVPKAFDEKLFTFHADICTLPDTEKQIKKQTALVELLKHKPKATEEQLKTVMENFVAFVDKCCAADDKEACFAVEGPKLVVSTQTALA

B1: HB (peptide)
peptide: RAPESFVCYWETICFERSEQ
modifications: not fully specified (bridges); printed as Arg-Ala-Pro-Glu-Ser-Phe-Val-Cys-Tyr-Trp-Glu-Thr-Ile-Cys-Phe-Glu-Arg-Ser-Glu-Gln; cysteine pairing not given here
notes: phage clone selected on human SA
Does B1 bind (human albumin [1])?
Result: binds

Does B1 bind (rabbit albumin [2])?
Result: no binding

Does B1 bind (rat albumin [3])?
Result: binds

B2: HC (peptide)
peptide: EMCYFPGICWM
modifications: not fully specified (bridges); printed as Glu-Met-Cys-Tyr-Phe-Pro-Gly-Ile-Cys-Trp-Met; cysteine pairing not given here
notes: as for B1
Does B2 bind (human albumin [1])?
Result: binds

Does B2 bind (rabbit albumin [2])?
Result: no binding

Does B2 bind (rat albumin [3])?
Result: binds

Does DICLPRWGCLW (phage clone, Library RC) [RC-R13] bind (bovine albumin)?
Result: no binding

Does DICLPRWGCLW (phage clone, Library RC) [RC-R13] bind (ovalbumin)?
Result: no binding

Does DICLPRWGCLW (phage clone, Library RC) [RC-R13] bind (human albumin [4])?
Result: no binding

B3: SA04 (peptide)
peptide: DICLPRWGCLW-{code n}
modifications: disulfide 3-9 (inferred); reading uncertain; also: printed as Asp-Ile-Cys-Leu-Pro-Arg-Trp-Gly-Cys-Leu-Trp
notes: synthesized peptide
Which results are given for B3?
IC50 (mouse albumin [5]): 40 nM; IC50 (rabbit albumin [6]): 8540 nM; IC50 (rat albumin [7]): 787 nM

B4: SA05 (peptide)
peptide: MEDICLPRWGCLWED-{code n}
modifications: disulfide 5-11 (inferred); reading uncertain; also: printed as Met-Glu-Asp-Ile-Cys-Leu-Pro-Arg-Trp-Gly-Cys-Leu-Trp-Glu-Asp
notes: synthesized peptide
What does the source list for B4?
IC50 (mouse albumin [5]): 6 nM; IC50 (rabbit albumin [6]): 804 nM; IC50 (rat albumin [7]): 161 nM

B5: SA07 (peptide)
peptide: QGLIGDICLPRWGCLWGDSV-{code n}
modifications: disulfide 8-14 (inferred); reading uncertain; also: printed as Gln-Gly-Leu-Ile-Gly-Asp-Ile-Cys-Leu-Pro-Arg-Trp-Gly-Cys-Leu-Trp-Gly-Asp-Ser-Val
notes: synthesized peptide
Which IC50 (mouse albumin [5]) does the source give for B5 here?
The IC50 was 6 nM.

And the IC50 (rabbit albumin [6])?
Its IC50 is 30 nM.

What about the IC50 (rat albumin [7]) of the same binder?
Its IC50 is 35 nM.

B6: SA09 (peptide)
peptide: Ac-EDICLPRWGCLWEDD-{code n}
modifications: disulfide 4-10 (inferred); reading uncertain; also: printed as Glu-Asp-Ile-Cys-Leu-Pro-Arg-Trp-Gly-Cys-Leu-Trp-Glu-Asp-Asp
notes: synthesized peptide
B6 was tested. Which IC50 (mouse albumin [5]) did it give?
Its IC50 is 6 nM.

And the IC50 (rabbit albumin [6])?
Its IC50 is 1690 nM.

What about the IC50 (rat albumin [7]) of the same binder?
The IC50 was 258 nM.

B7: SA11 (peptide)
peptide: Ac-MEDICLPRWGCLWEDD-{code n}
modifications: disulfide 5-11 (inferred); reading uncertain; also: printed as Met-Glu-Asp-Ile-Cys-Leu-Pro-Arg-Trp-Gly-Cys-Leu-Trp-Glu-Asp-Asp
notes: synthesized peptide
What does the source list for B7?
IC50 (mouse albumin [5]): 17 nM; IC50 (rabbit albumin [6]): 1210 nM; IC50 (rat albumin [7]): 232 nM

B8: SA12 (peptide)
peptide: Ac-MEDICLPRWGCLWED-{code n}
modifications: disulfide 5-11 (inferred); reading uncertain; also: printed as Met-Glu-Asp-Ile-Cys-Leu-Pro-Arg-Trp-Gly-Cys-Leu-Trp-Glu-Asp
notes: synthesized peptide
Which IC50 (mouse albumin [5]) does the source give for B8 here?
Its IC50 is 13 nM.

What about the IC50 (rabbit albumin [6]) of the same binder?
Its IC50 is 1760 nM.

And the IC50 (rat albumin [7])?
The IC50 was 205 nM.

B9: HA (peptide)
peptide: EVRSFCTDWPAEKSCKPLRG
modifications: not fully specified (bridges); printed as Glu-Val-Arg-Ser-Phe-Cys-Thr-Asp-Trp-Pro-Ala-Glu-Lys-Ser-Cys-Lys-Pro-Leu-Arg-Gly; cysteine pairing not given here
notes: as for B1
Does B9 bind (human albumin [1])?
Result: binds

Does B9 bind (rabbit albumin [2])?
Result: no binding

Does B9 bind (rat albumin [3])?
Result: no binding

Does GENWCDSTLMAYDLCGQVNM (phage clone selected on rabbit SA) [BA] bind (human albumin [1])?
Result: no binding

Does GENWCDSTLMAYDLCGQVNM (phage clone selected on rabbit SA) [BA] bind (rat albumin [3])?
Result: no binding

Does DSEVCYFPGICWSGT (phage clone, Library HBC) [HBC-H1] bind (ovalbumin)?
Result: no binding

Does DSEVCYFPGICWSGT (phage clone, Library HBC) [HBC-H1] bind (rabbit albumin [8])?
Result: no binding

Does DSEVCYFPGICWSGT (phage clone, Library HBC) [HBC-H1] bind (rat albumin [9])?
Result: no binding

Does RNEDPCVVLLEMGLECWEGV (phage clone selected on rat SA) [RA] bind (human albumin [1])?
Result: no binding

Does RNEDPCVVLLEMGLECWEGV (phage clone selected on rat SA) [RA] bind (rabbit albumin [2])?
Result: no binding

Does DTCVDLVRLGLECWG (phage clone selected on rat SA) [RD] bind (human albumin [1])?
Result: no binding

Does DTCVDLVRLGLECWG (phage clone selected on rat SA) [RD] bind (rabbit albumin [2])?
Result: no binding

Does DLCLRDWGCLW (phage clone selected on rat SA) [RC] bind (human albumin [1])?
Result: no binding

Does DLCLRDWGCLW (phage clone selected on rat SA) [RC] bind (rabbit albumin [2])?
Result: no binding

Does EEDLCLPVWGCLWGA (not fully specified (bridges); cysteine pairing not given here, phage clone, Library RBC) [RBC-R14] bind (bovine albumin)?
Result: no binding

Does EEDLCLPVWGCLWGA (not fully specified (bridges); cysteine pairing not given here, phage clone, Library RBC) [RBC-R14] bind (ovalbumin)?
Result: no binding

Does EEDLCLPVWGCLWGA (not fully specified (bridges); cysteine pairing not given here, phage clone, Library RBC) [RBC-R14] bind (human albumin [4])?
Result: no binding

Does EEDLCLPVWGCLWGA (not fully specified (bridges); cysteine pairing not given here, phage clone, Library RBC) [RBC-R14] bind (rabbit albumin [8])?
Result: no binding

Does CGCVDVSDWDCWSECLWSHGA (phage clone selected on rat SA) [RE] bind (human albumin [1])?
Result: no binding

Does CGCVDVSDWDCWSECLWSHGA (phage clone selected on rat SA) [RE] bind (rabbit albumin [2])?
Result: no binding

Does DTCADLVRLGLECWA (phage clone, Library RD) [RD-R2] bind (ovalbumin)?
Result: no binding

Does DTCADLVRLGLECWA (phage clone, Library RD) [RD-R2] bind (human albumin [4])?
Result: no binding

Does DTCADLVRLGLECWA (phage clone, Library RD) [RD-R2] bind (rabbit albumin [8])?
Result: no binding

Does GEDWCDSTLLAFDLCGEGAR (phage clone, Library BA) [BA-B44] bind (bovine albumin)?
Result: no binding

Does GEDWCDSTLLAFDLCGEGAR (phage clone, Library BA) [BA-B44] bind (rhesus albumin)?
Result: no binding

Does GEDWCDSTLLAFDLCGEGAR (phage clone, Library BA) [BA-B44] bind (mouse albumin [10])?
Result: no binding

Does GEDWCDSTLLAFDLCGEGAR (phage clone, Library BA) [BA-B44] bind (rat albumin [11])?
Result: no binding

Does GEDWCDSTLLAFDLCGEGAR (phage clone, Library BA) [BA-B44] bind (ovalbumin)?
Result: no binding

Does GEDWCDSTLLAFDLCGEGAR (phage clone, Library BA) [BA-B44] bind (human albumin [4])?
Result: no binding

What does the source list for GENWCDWVLLAYDLCGEDNT (phage clone, Library BA) [BA-B37]?
binding result (rhesus albumin): no binding; binding result (human albumin [12]): no binding; binding result (mouse albumin [10]): no binding; binding result (rat albumin [11]): no binding; binding result (ovalbumin): no binding

What does the source list for MELWCDSTLMAYDLCGDFNM (phage clone, Library BA) [BA-B39]?
binding result (rhesus albumin): no binding; binding result (human albumin [12]): no binding; binding result (mouse albumin [10]): no binding; binding result (rat albumin [11]): no binding; binding result (ovalbumin): no binding

What does the source list for RAAESSVCYWPGICFDRTEQ (not fully specified (bridges); cysteine pairing not given here, phage clone, Library HB) [HB-H2]?
binding result (mouse albumin [10]): no binding; binding result (rat albumin [11]): no binding; binding result (ovalbumin): no binding; binding result (rabbit albumin [8]): no binding

What does the source list for MDELAFYCGIWECLMHQEQK (phage clone selected on rabbit SA) [BB]?
binding result (human albumin [1]): no binding; binding result (rat albumin [3]): no binding

Which results are given for DLCDVDFCWF (phage clone selected on rabbit SA) [BC]?
binding result (human albumin [1]): no binding; binding result (rat albumin [3]): no binding

Does KSCSELHWLLVEECLF (phage clone selected on rabbit SA) [BD] bind (human albumin [1])?
Result: no binding

Does KSCSELHWLLVEECLF (phage clone selected on rabbit SA) [BD] bind (rat albumin [3])?
Result: no binding

Source: US20040253247A1 (Genentech, published 2004)
